Reference: patent US20250152663A1, “COMPOSITION FOR PREVENTION OR TREATMENT OF DRY EYE DISEASE COMPRISING HAPLN1” (HAPLNSCIENCE INC., priority 2021, published 2025)

Key:
goblet cells = assay: Goblet cells (PAS staining), rabbit dry eye model; assay type: in vivo, New Zealand white rabbits
Experimental: Eyes of the rabbits including conjunctiva were enucleated, fixed with a specific fixing solution to be embedded into paraffin, and microsectioned, followed by staining and analysis according to the purpose. In this regard, the eyeballs were stained by hematoxylin & eosin (H & E) staining and detachment of corneal epithelial tissue was analyzed. After PAS staining, distribution of goblet cells in the conjunctiva was measured. In addition, after conjunctiva epithelium indentation (impression cytology), PAS staining was performed and distribution of goblet cells was measured.
After 15 days of eye examination, on the 1st day after 16 days of drug treatment, eyes were enucleated, subjected to histopathological analysis, and paraffin blocked. Tissue was stained in a section slide by PAS staining (FIG. 17A). The number of goblet cells in a range of 200 μm^2 was measured and quantified (FIG. 17b).

rabbit dry eye model = assay: Corneal fluorescein score, 0.1% benzalkonium chloride-induced dry eye disease model; assay type: in vivo, New Zealand white rabbits
Experimental: Corneal fluorescein score assay and tear volume assay were respectively performed on eyeballs of rabbits treated with the compositions of Preparation Examples 1, 2, and 3 prepared in Example 7 above by using a 0.1% benzalkonium chloride (BAC)-induced dry eye disease (DED) model.
One drop (0.05 ml) of 0.1% benzalkonium chloride (BAC) was administered to both eyes of rabbits twice a day (9:00 and 17:00) for 14 days, and then induction of dry eye was identified by examination of eyes, and the rabbits were classified into groups.
The test substance was dropped into the groups of the rabbit model twice a day (8:30 and 16:30) (Day 15 to 30 (total of 16 days)).
Anesthesia was induced by intramuscular injection of Xylazine and Ketamine, and then one drop of Alcaine Eye Drop was administered and tear and the eye drop remaining therein were removed by using Weck-cel cellulose spear. After putting STT paper on the lower eyelid, a length of a wet region for 5 minutes was measured (STT-2). In addition, stability of the tear film was tested by measuring tear film break up time (TFBUT, measurement of time taken for the tear film to break down). Furthermore, conditions of the cornea and fluorescent staining were identified by a slit test.

[1] = test system: goblet cells present in the conjunctiva; assay: Goblet cells in conjunctiva (PAS staining), mouse dry eye model; assay type: in vivo, C57BL/6; conditions: 16th day
From the text: On the 16th days from drug treatment, eyes were enucleated and paraffin blocked, and tissue was stained by PAS staining on a prepared slide (FIG. 10A). PAS staining specifically stains goblet cells. Because there are many mucopolysaccharides and mucoproteins in the goblet cells, […] thereof is oxidized by a periodic acid to form an aldehyde, which reacts with a Schiff reagent to be stained in red-purple.
In this regard, the number of goblet cells present in the conjunctiva was measured and quantified (FIG. 10B). As a result, in the dry eye disease model, the number of damaged goblet cells decreased.

mouse dry eye model = assay: Tear volume assay (Schirmer's test strip), low-humidity+scopolamine-induced dry eye disease model; assay type: in vivo, C57BL/6
Experimental: Corneal fluorescein score assay and tear volume assay were respectively performed on eyeballs of mice treated with the compositions of Preparation Examples 1, 2, and 3 prepared in Example 7 above by using a low-humidity+scopolamine-induced dry eye disease (DED) model.
While the test animals were raised in a desiccating stress chamber with a relative humidity of 30% or less, scopolamine hydrobromide (S0929, Sigma-aldrich) prepared in a concentration of 2.5 mg/mL in saline (0.9% normal saline, JW Pharmaceuticals Corp.) was subcutaneously injected thereinto four times a day (QID: 09:30 AM, 12:00 PM, 15:00 PM, and 17:30 PM) for 10 days at a dose of 10 mL/kg to induce dry eye disease. The subcutaneous injection was performed at the back while moving positions to minimize damage caused by repeated administration. […]
• (1) General anesthesia of the mice was induced (10 mg/kg xylazine and 100 mg/kg ketamine, intraperitoneal injection). • (2) After 3 hours from administration of scopolamine hydrobromide in the morning (at 9:30 AM), measurement was conducted. • (3) The volume of tear was measured by using a Schirmer's test strip cut to ½ thickness. […] Then, one drop (5 μl) of physiological saline was applied to the eyeballs. • (4) A length of a wet portion of the strip was measured by a ruler. […]

B1: hyaluronan and proteoglycan link protein 1 (HAPLN1) (protein, listed as Homo sapiens)
chain: MKSLLLLVLISICWADHLSDNYTLDHDRAIHIQAENGPHLLVEAEQAKVFSHRGGNVTLPCKFYRDPTAFGSGIHKIRIKWTKLTSDYLKEVDVFVSMGYHKKTYGGYQGRVFLKGGSDSDASLVITDLTLEDYGRYKCEVIEGLEDDTVVVALDLQGVVFPYFPRLGRYNLNFHEAQQACLDQDAVIASFDQLYDAWRGGLDWCNAGWLSDGSVQYPITKPREPCGGQNTVPGVRNYGFWDKDKSRYDVFCFTSNFNGRFYYLIHPTKLTYDEAVQACLNDGAQIAKVGQIFAAWKILGYDRCDAGWLADGSVRYPISRPRRRCSPTEAAVRFVGFPDKKHKLYGVYCFRAYN
Goblet cells; after 16 days of drug treatment, in proportion to the concentration
  number of goblet cells compared to the dry eye disease model: significantly increased
Goblet cells; high concentration (50 μg/ml)
  number of goblet cells compared to Restasis: far more increased
Rabbit dry eye model; after 10 days
  reduction of CFS level compared with Restasis: more than by Restasis
Rabbit dry eye model; eye drop 0.5, 5, 50 μg/ml b.i.d., regardless of the concentration
  CFS level: consistently decreased
[1]
  number of goblet cells compared with normal Sham control: equivalent to that of the normal Sham control
[1]; regardless of the concentration
  number of goblet cells compared to the dry eye model: significantly increased
Mouse dry eye model; after 11 days
  tear volume compared with Cyclosporine A: increased the tear volume far more than Cyclosporine A
Mouse dry eye model; eye drop 0.5, 5, 50 μg/ml, 5 μL b.i.d., regardless of the concentration, more than Cyclosporine A
  tear volume: consistently increased
